One block for each binder: values may come before it. Ends that are not written are not given here.
B1: His6-Hsp90β (full-length) (natural protein)
chain: not shown
B3: Carboxyl terminus of Hsc70-interacting protein (CHIP), full-length human, His6-tagged (enzyme, UniProt Q9UNE7 1-303, looked up)
chain: MKGKEEKEGGARLGAGGGSPEKSPSAQELKEQGNRLFVGRKYPEAAACYGRAITRNPLVAVYYTNRALCYLKMQQHEQALADCRRALELDGQSVKAHFFLGQCQLEMESYDEAIANLQRAYSLAKEQRLNFGDDIPSALRIAKKKRWNSIEERRIHQESELHSYLSRLIAAERERELEECQRNHEGDEDDSHVRAQQACIEAKHDKYMADMDELFSQVDEKRKKRDIPDYLCGKISFELMREPCITPSGITYDRKDIEEHLQRVGHFDPVTRSPLTQEQLIPNLAMKEVIDAFISENGWVEDY

Assays:
[1] = target: B3; test: ITC
[2] = target: B3; test: SEC
[3] = target: B1; test: pull-down
[4] = target: His6-Hsp70 (full-length, wild type) (UniProt P0DMV8 1-641); test: ITC
Chain of His6-Hsp70 (full-length, wild type) (P0DMV8 whole entry): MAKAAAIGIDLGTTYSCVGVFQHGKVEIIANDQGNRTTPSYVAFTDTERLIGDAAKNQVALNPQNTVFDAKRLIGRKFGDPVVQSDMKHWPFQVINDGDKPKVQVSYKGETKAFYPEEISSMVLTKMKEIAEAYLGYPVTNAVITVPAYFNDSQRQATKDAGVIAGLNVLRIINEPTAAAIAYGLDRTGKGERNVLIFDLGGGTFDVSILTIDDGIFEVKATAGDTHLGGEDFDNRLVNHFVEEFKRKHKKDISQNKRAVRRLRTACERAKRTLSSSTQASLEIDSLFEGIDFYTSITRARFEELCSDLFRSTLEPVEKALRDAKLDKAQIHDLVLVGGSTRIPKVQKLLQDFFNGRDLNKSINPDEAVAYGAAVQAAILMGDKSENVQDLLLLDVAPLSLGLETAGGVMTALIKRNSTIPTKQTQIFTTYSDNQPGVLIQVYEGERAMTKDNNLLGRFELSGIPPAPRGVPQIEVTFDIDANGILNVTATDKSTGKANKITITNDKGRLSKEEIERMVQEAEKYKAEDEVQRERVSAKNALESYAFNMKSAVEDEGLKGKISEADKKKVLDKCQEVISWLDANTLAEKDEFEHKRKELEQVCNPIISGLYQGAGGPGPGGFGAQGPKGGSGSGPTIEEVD

Binder: B1
- stoichiometry N [2]: ~2.1 Hsp90 monomers per CHIP monomer

Binder: B3
- Kd [4]: ~1000 nM

Binder: GSSAAWTEEMPPLEGDDDTSRMEEVD-OH [Hsp90 C-terminal peptide ([residues removed]-COO-), ITC]
- stoichiometry N [1]: ~0.9 Hsp90 C-terminal peptide per CHIP monomer

Continued, values first:

- stoichiometry N [1]: ~0.8 C-terminal Hsp70 peptide per CHIP monomer
Binder: GGGAPPSGGASSGPTIEEVD-OH [Hsp70 C-terminal peptide (GGGAPPSGGASSGPTIEEVD-COO-), ITC]

- binding result [3]: binds
B2: GST-CHIP fusion (pGST-hCHIP (1-303)) (enzyme, human, UniProt Q9UNE7 1-303, looked up)
chain: MKGKEEKEGGARLGAGGGSPEKSPSAQELKEQGNRLFVGRKYPEAAACYGRAITRNPLVAVYYTNRALCYLKMQQHEQALADCRRALELDGQSVKAHFFLGQCQLEMESYDEAIANLQRAYSLAKEQRLNFGDDIPSALRIAKKKRWNSIEERRIHQESELHSYLSRLIAAERERELEECQRNHEGDEDDSHVRAQQACIEAKHDKYMADMDELFSQVDEKRKKRDIPDYLCGKISFELMREPCITPSGITYDRKDIEEHLQRVGHFDPVTRSPLTQEQLIPNLAMKEVIDAFISENGWVEDY

Reference: publication PMC3141330 (Biochemistry, 2010)
